Measured values from paper doi:10.1101/2024.12.18.629111 (bioRxiv, 2024).

T1: CBP-Upf1-FL (S. cerevisiae, UniProt P30771 1-971)
T1 sequence (looked up): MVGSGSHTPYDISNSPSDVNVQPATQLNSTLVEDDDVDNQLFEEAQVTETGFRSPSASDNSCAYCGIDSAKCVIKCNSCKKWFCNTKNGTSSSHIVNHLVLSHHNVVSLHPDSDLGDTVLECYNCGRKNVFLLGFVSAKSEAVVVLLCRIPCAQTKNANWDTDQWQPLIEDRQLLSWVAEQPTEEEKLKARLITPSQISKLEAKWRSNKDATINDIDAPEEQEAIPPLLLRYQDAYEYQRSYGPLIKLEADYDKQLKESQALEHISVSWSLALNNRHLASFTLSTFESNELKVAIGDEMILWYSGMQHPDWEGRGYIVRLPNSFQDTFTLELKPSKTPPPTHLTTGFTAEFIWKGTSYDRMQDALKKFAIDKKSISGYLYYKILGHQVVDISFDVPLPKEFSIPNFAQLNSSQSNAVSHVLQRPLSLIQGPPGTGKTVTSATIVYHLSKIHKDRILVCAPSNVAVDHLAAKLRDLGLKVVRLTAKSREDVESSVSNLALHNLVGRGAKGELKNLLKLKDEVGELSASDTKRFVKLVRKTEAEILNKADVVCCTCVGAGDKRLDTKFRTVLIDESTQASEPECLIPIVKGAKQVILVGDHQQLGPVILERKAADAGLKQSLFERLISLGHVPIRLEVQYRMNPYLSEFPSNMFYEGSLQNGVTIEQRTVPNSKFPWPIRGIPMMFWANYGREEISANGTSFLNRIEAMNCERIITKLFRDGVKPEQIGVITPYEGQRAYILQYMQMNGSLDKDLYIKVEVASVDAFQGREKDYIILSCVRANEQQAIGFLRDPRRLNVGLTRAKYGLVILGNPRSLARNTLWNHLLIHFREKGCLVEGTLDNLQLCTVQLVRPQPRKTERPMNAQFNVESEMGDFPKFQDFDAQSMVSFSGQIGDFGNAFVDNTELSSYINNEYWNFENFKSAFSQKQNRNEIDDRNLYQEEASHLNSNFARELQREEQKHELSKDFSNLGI

T2: CBP-Upf1-CH-HD (S. cerevisiae, UniProt P30771 54-851)
T2 sequence (looked up): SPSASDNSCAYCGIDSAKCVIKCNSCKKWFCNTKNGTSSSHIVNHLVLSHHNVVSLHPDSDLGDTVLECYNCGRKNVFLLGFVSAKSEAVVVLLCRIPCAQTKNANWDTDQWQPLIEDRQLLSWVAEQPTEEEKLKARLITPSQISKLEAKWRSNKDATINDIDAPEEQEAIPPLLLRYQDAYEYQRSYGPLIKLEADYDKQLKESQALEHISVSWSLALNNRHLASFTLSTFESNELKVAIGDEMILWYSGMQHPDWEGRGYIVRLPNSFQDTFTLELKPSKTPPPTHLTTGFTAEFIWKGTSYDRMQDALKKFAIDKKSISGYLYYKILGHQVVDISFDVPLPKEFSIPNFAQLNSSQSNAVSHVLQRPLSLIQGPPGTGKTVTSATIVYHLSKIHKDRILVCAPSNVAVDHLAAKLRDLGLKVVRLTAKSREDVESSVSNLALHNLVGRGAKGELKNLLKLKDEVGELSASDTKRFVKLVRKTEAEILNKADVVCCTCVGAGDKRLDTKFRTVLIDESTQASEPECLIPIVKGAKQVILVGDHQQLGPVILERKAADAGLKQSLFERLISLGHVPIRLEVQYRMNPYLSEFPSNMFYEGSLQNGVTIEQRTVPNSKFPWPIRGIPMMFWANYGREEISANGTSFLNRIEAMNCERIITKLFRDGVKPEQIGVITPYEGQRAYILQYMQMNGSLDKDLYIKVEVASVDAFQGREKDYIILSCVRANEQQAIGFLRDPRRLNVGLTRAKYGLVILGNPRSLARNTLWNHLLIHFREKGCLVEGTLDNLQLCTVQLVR

T3: CBP-Upf1-HD-Ct (S. cerevisiae, UniProt P30771 221-971)
T3 sequence (looked up): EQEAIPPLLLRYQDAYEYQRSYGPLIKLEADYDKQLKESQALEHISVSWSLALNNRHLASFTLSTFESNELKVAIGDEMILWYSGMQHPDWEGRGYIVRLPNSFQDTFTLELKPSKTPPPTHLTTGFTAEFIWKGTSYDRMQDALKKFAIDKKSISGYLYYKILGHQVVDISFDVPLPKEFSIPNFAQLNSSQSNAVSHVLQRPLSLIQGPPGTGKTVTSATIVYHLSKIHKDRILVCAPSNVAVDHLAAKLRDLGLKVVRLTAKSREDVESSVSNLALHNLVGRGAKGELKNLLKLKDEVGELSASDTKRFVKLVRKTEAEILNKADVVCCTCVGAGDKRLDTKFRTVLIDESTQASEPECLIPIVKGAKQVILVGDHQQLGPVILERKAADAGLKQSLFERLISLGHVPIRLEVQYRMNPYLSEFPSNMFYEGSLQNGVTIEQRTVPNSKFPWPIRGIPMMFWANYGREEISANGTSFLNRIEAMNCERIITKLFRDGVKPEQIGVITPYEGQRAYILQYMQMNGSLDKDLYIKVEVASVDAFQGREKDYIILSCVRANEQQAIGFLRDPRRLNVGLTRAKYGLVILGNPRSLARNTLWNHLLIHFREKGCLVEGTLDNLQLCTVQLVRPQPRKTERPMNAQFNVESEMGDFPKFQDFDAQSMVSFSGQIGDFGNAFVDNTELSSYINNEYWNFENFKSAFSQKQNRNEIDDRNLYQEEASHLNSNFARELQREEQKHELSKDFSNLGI

T4: CBP-Upf1-HD (S. cerevisiae, UniProt P30771 221-851)
T4 sequence (looked up): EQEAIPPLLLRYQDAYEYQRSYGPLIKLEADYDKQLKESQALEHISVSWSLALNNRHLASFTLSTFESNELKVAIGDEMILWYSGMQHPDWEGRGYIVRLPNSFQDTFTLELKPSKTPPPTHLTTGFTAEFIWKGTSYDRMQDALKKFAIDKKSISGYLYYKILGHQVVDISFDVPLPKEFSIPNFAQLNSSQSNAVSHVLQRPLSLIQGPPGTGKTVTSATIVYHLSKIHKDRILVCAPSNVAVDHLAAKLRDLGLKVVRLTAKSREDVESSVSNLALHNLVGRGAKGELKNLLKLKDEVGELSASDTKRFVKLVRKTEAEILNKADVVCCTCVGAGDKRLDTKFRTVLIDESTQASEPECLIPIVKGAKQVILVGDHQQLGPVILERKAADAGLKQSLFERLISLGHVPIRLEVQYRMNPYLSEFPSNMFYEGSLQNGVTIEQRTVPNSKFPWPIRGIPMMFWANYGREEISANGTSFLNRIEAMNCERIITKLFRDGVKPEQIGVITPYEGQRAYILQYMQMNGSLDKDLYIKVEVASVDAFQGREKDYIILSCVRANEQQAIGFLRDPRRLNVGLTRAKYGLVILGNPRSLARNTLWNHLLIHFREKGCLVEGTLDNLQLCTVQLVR

B1: GST-Ebs1 (aa 1-591) (domain or fragment, S. cerevisiae, UniProt Q03466 1-591, looked up)
chain: MEPSNTQKEDLPTAFNGIKSQLNSILKSNQLFQDYALLNGFLAFVHSKLNAAILTSIESQCGKSFAADLDSFDQSSISSILDFSWESVHYPIFKWFQMWRNYILFEKENKKQQTKFIDFRKMNSKMLKFFKTVQNFYVNVINTVYKKYDISVLLPKRIIQDLKLSDIENTTNVGDILAVKTFNSSSPLAHLIPTLFHRCLLFLGTAYRYKTLLEEISNKYSISNFKKSLDFFRLASLVLPSAGETYSQAGAIFLQTGNLGIAVFNFVKGMMTKMPSPVSIKNFGALMVDNKSSLNRSLHTTIMNTYLQESKGPRTPAKEILEFYFLGLFGSVWSPTSWRDDTKPNQLNNGIKLRHLENALYETMSARYLNNIKTIFHNLIITIGGFHLLLKRRSDVSAKTLKDLRSNELDYLNFAFKYIAHILNDIVKESWSENPEVSEILGMVRIINCWIKANPMVLQYSQSNLEFVNALAYLINDIVKKKPSPSFSITEHIPKRTYWFEEDLMVKGLSFVNFQLSDFDDYEKILEMDHSLDRLIGNPPLCDKLSASSEMLLRLQAVVNISSQLLQNNNCGVEWSDNKSRYIFNKKIGFK
B2: HisSUMO-tagged Ebs1 (aa 1-591) (domain or fragment, S. cerevisiae, UniProt Q03466 1-591, looked up)
chain: B1 chain
B3: CBP-Upf1-Ct (domain or fragment, S. cerevisiae, UniProt P30771 852-971, looked up)
chain: PQPRKTERPMNAQFNVESEMGDFPKFQDFDAQSMVSFSGQIGDFGNAFVDNTELSSYINNEYWNFENFKSAFSQKQNRNEIDDRNLYQEEASHLNSNFARELQREEQKHELSKDFSNLGI
B4: TS-Nmd4-His (natural protein, S. cerevisiae, UniProt Q12129 1-218, looked up)
chain: MTQYNFIIDASAFEKGLGNIKRWCSDCTEAVTLNFYIPTFTLNELDFLQQRRKSFAARESLKFIDRLDDSKFANLKVFIEFPEVLDIILWSDVMEHNDSSGKINIAKLPKRLKNLLKSCIYKCYLEGNEGLHWFLISEDPQIREMAMQCNIPSCSIVDVDSILSKDMNDKSFRESEKFNNMMLKNGTKEESENGREIIRTNFNKTVYASRGTGELWSP
B5: GST-Dcp2-UBD (domain or fragment, S. cerevisiae, UniProt P53550 434-720, looked up)
chain: GYSSSSPGQLLDILNSKKPDSNVQSSKKPKLKILQRGTDLNSIKQNNNDETAHSNSQALLDLLKKPTSSQKIHASKPDTSFLPNDSVSGIQDAEYEDFESSSDEEVETARDERNSLNVDIGVNVMPSEKDSRRSQKEKPRNDASKTNLNASAESNSVEWGPGKSSPSTQSKQNSSVGMQNKYRQEIHIGDSDAYEVFESSSDEEDGKKLEELEQTQDNSKLISQDILKENNFQDGEVPHRDMPTESNKSINETVGLSSTTNTVKKVPKVKILKRGETFASLANDKKA
B6: GST-Dcp2-UBD1 (domain or fragment, S. cerevisiae, UniProt P53550 434-508, looked up)
chain: GYSSSSPGQLLDILNSKKPDSNVQSSKKPKLKILQRGTDLNSIKQNNNDETAHSNSQALLDLLKKPTSSQKIHAS

Experiments:
Experiment in all cases: pull-down
CBP-Upf1-FL = target: T1, CBP-Upf1-FL
GST-Ebs1 (aa 1-591) = target: B1
CBP-Upf1-CH-HD = target: T2, CBP-Upf1-CH-HD
CBP-Upf1-HD-Ct = target: T3, CBP-Upf1-HD-Ct
CBP-Upf1-HD = target: T4, CBP-Upf1-HD

Row | binding result (CBP-Upf1-FL) | binding result (GST-Ebs1 (aa 1-591)) | binding result (CBP-Upf1-CH-HD) | binding result (CBP-Upf1-HD-Ct) | binding result (CBP-Upf1-HD) | Binder
1 | binds | – | – | – | – | B1
2 | binds | – | – | – | – | B2
3 | – | binds | – | – | – | B3
4 | binds | – | binds | binds | binds | B4
5 | binds | – | binds | – | – | B5
6 | binds | – | binds | – | – | B6
